Bridge positions count the residues as written; N and C are the ends. Square brackets hold non-standard residues; d marks the D form.
What was measured:
[1] = biological target: T1, N-terminally biotinylated human PADI4 (bio-His-PADI4) (human, UniProt Q9UM07 1-663, G55S (read from the plasmid's DNA at D1:p46, codon AGC)); not stated by the …, biotin on the Avi-Tag (BirA)); assay: SPR; single cycle kinetics, Biacore T200 or S200; Bio-His-PADI4 captured on a Biotin CAPture chip (~2000 RU), peptide as analyte; 25 °C; 50 mM HEPES pH 7.5, 150 mM NaCl, 2 mM DTT, 0.05% Tween-20, 0.1% DMSO, 10 mM Ca2+; 1:1 binding model; settings: both partners purified
T1 construct: human PADI4, residues 1-663, cloned into p28BIOH-LIC; The COLDER assays used His-PADI4 from the same plasmid made without BirA (not biotinylated); also called Bio-hPADI4 wt; Avi-His-PADI4; source: E. coli BL21-DE3 co-expressing biotin ligase (BirA), purified (Ni-NTA, S200 size exclusion); not shown: Avi-Tag, N-terminal, kept; His6, N-terminal, kept
T1 sequence (Q9UM07 whole entry G55S/V82A/G112A, the tested form may be a part): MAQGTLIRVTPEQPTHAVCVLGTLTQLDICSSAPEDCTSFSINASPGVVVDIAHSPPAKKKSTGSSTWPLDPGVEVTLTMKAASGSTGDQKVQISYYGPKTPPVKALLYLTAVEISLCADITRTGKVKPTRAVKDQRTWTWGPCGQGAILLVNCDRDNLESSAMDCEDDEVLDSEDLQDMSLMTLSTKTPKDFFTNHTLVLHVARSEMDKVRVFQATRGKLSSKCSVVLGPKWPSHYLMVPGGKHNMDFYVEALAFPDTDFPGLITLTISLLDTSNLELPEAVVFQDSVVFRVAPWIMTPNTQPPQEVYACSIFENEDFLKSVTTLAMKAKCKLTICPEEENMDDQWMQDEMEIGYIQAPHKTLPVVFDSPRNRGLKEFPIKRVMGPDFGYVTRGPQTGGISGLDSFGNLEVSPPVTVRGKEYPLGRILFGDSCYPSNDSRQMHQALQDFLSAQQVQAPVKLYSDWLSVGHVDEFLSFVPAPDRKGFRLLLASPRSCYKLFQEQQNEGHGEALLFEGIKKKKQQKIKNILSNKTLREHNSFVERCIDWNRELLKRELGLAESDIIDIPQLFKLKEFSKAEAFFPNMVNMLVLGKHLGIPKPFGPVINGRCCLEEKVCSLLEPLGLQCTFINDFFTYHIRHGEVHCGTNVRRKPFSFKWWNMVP

[2] = biological target: T1, N-terminally biotinylated human PADI4 …; assay: SPR; as a1 with 10 mM Ca2+ and 200 µM Cl-amidine (PADI4 active site covalently blocked with Cl-amidine); settings: both partners purified
[3] = biological target: T1, N-terminally biotinylated human PADI4 …; assay: SPR; single cycle kinetics; Bio-His-PADI4 captured on a Biotin CAPture chip, peptide as analyte; 25 °C; 50 mM HEPES pH 7.5, 150 mM NaCl, 2 mM DTT, 0.05% Tween-20, 0.1% DMSO; CaCl2 concentration not stated for these data; 1:1 binding model; settings: both partners purified
[4] = biological target: T2, bio-His-PADI4 with the active site covalently blocked by Cl-amidine (human, UniProt Q9UM07 1-663, biotin on the N-terminal Avi-Tag (BirA); active site covalently blocked with Cl-amidine (residue not stated)); assay: SPR; as a1 with 10 mM CaCl2 and the PADI4 active site blocked with Cl-amidine; Bio-His-PADI4 captured, peptide as analyte; 25 °C; 1:1 binding model; settings: both partners purified
T2 construct: human peptidylarginine deiminase IV (PADI4), residues 1-663; Same protein as m1; also called 10 mM CaCl2 + Cl-amidine; source: E. coli BL21-DE3 co-expressing biotin ligase (BirA), purified (Ni-NTA, S200 SEC); treated with Cl-amidine; not shown: Avi-Tag (biotinylated), N-terminal, kept; His6, N-terminal, kept
T2 sequence (Q9UM07 whole entry, the tested form may be a part): as the sequence (Q9UM07 whole entry G55S/V82A/G112A, the tested form may be a part) above, with S55G, A82V, A112G counted along it

[5] = biological target: T3, N-terminally biotinylated recombinant human PADI4 (bio-His-PADI4) (human, UniProt Q9UM07 1-663, biotin on the N-terminal Avi-Tag (BirA)); assay: SPR; single cycle kinetics, Biacore T200 or S200; Bio-His-PADI4 captured on a Biotin CAPture chip (~2000 RU), peptide as analyte; 50 mM HEPES pH 7.5, 150 mM NaCl, 2 mM DTT, 0.05% Tween-20, 0.1% DMSO, 10 mM CaCl2; 25 °C; 1:1 binding model; settings: both partners purified
T3 construct: human peptidylarginine deiminase IV (PADI4), residues 1-663; (vector p28BIOH-LIC, Addgene plasmid 62352); also called Bio-hPADI4 wt; PADI4_WT; source: E. coli BL21-DE3 co-expressing biotin ligase (BirA), purified (Ni-NTA, S200 SEC); not shown: Avi-Tag (biotinylated), N-terminal, kept; His6, N-terminal, kept
T3 sequence (Q9UM07 whole entry, the tested form may be a part): as the sequence (Q9UM07 whole entry G55S/V82A/G112A, the tested form may be a part) above, with S55G, A82V, A112G counted along it

[6] = biological target: T3, N-terminally biotinylated recombinant …; assay: SPR; as a1 but 0 mM CaCl2 (calcium-free running buffer); Bio-His-PADI4 captured, peptide as analyte; 25 °C; 1:1 binding model; settings: both partners purified
[7] = biological target: His-tagged recombinant human PADI4 (His-PADI4) (human, UniProt Q9UM07 1-663); assay: cell-based or functional assay
His-tagged recombinant human PADI4 (His-PADI4), sequence (Q9UM07 whole entry): as the sequence (Q9UM07 whole entry G55S/V82A/G112A, the tested form may be a part) above, with S55G, A82V, A112G counted along it

[8] = biological target: human PADI4 stably expressed in E14 mouse embryonic stem cells (hPADI4-stable) (human, UniProt Q9UM07 1-663); assay: cell-based or functional assay
human PADI4 stably expressed in E14 mouse embryonic stem cells (hPADI4-stable), sequence (Q9UM07 whole entry): as the sequence (Q9UM07 whole entry G55S/V82A/G112A, the tested form may be a part) above, with S55G, A82V, A112G counted along it

[9] = biological target: T4, PADI4_N373A (human, UniProt Q9UM07 1-663, N373A); assay: SPR; single cycle kinetics; biotinylated PADI4 (wild type or single-residue variant) captured on a Biotin CAPture chip, peptide or peptide analogue as analyte; 50 mM HEPES pH 7.5, 150 mM NaCl, 2 mM DTT, 0.05% Tween-20, 0.1% DMSO; 25 °C; CaCl2 concentration not told for these runs; settings: both partners purified
T4 construct: human PADI4, residues 1-663, single substitution; source: E. coli BL21-DE3, purified (Ni-NTA, S200 SEC), as told for the wild type
T4 sequence (Q9UM07 whole entry N373A, the tested form may be a part): as the sequence (Q9UM07 whole entry G55S/V82A/G112A, the tested form may be a part) above, with S55G, A82V, A112G, N373A counted along it

[10] = biological target: T5, PADI4_D165A (human, UniProt Q9UM07 1-663, D165A); assay: as above; settings: both partners purified
T5 construct: human PADI4, residues 1-663, single substitution made by mutagenesis of the plasmid; source: E. coli BL21-DE3, purified (Ni-NTA, S200 SEC), as told for the wild type
T5 sequence (Q9UM07 whole entry D165A, the tested form may be a part): as the sequence (Q9UM07 whole entry G55S/V82A/G112A, the tested form may be a part) above, with S55G, A82V, A112G, D165A counted along it

[11] = biological target: T6, PADI4_C166F (human, UniProt Q9UM07 1-663, C166F); assay: as above; settings: both partners purified
T6 construct: source: E. coli BL21-DE3, purified (Ni-NTA, S200 SEC), as told for the wild type
T6 sequence (Q9UM07 whole entry C166F): as the sequence (Q9UM07 whole entry G55S/V82A/G112A, the tested form may be a part) above, with S55G, A82V, A112G, C166F counted along it

[12] = biological target: T7, PADI4_E167A (human, UniProt Q9UM07 1-663, E167A); assay: as above; settings: both partners purified
T7 construct: human PADI4, residues 1-663, single substitution; source: E. coli BL21-DE3, purified (Ni-NTA, S200 SEC), as told for the wild type
T7 sequence (Q9UM07 whole entry E167A, the tested form may be a part): as the sequence (Q9UM07 whole entry G55S/V82A/G112A, the tested form may be a part) above, with S55G, A82V, A112G, E167A counted along it

[13] = biological target: T8, PADI4_D168A (human, UniProt Q9UM07 1-663, D168A); assay: as above; settings: both partners purified
T8 construct: human PADI4, residues 1-663, single substitution; source: E. coli BL21-DE3, purified (Ni-NTA, S200 SEC), as told for the wild type
T8 sequence (Q9UM07 whole entry D168A, the tested form may be a part): as the sequence (Q9UM07 whole entry G55S/V82A/G112A, the tested form may be a part) above, with S55G, A82V, A112G, D168A counted along it

[14] = biological target: T9, PADI4_R394A (human, UniProt Q9UM07 1-663, R394A); assay: as above; settings: both partners purified
T9 construct: human PADI4, residues 1-663, single substitution; source: E. coli BL21-DE3, purified (Ni-NTA, S200 SEC), as told for the wild type
T9 sequence (Q9UM07 whole entry R394A, the tested form may be a part): as the sequence (Q9UM07 whole entry G55S/V82A/G112A, the tested form may be a part) above, with S55G, A82V, A112G, R394A counted along it

[15] = biological target: T5, PADI4_D165A; assay: cell-based or functional assay
[16] = biological target: T6, PADI4_C166F; assay: cell-based or functional assay
[17] = biological target: T7, PADI4_E167A; assay: cell-based or functional assay
[18] = biological target: T8, PADI4_D168A; assay: cell-based or functional assay
[19] = biological target: T9, PADI4_R394A; assay: cell-based or functional assay
[20] = biological target: T3, N-terminally biotinylated recombinant …; assay: SPR; single cycle kinetics; biotinylated PADI4 (wild type or single-residue variant) captured on a Biotin CAPture chip, peptide or peptide analogue as analyte; 50 mM HEPES pH 7.5, 150 mM NaCl, 2 mM DTT, 0.05% Tween-20, 0.1% DMSO; 25 °C; CaCl2 concentration not told for these runs; settings: both partners purified

B1: PADI4_12 (peptide)
peptide: YEPCRFREILDL
modifications: not fully specified; acetylated N-terminus (L-tyrosine 1) joined by a thioether bond to the side chain of Cys4 (cyclic); C-terminal amide
notes: cyclic peptide from RaPID selection 3; also called PAD4_12; source: synthetic peptide (Fmoc solid-phase synthesis, HPLC-purified)
[1]
  Kd: 679 nM
  koff: 0.1 s⁻¹
  kon: 200000 M⁻¹ s⁻¹
[2]
  koff: 0.2 s⁻¹
  kon: 300000 M⁻¹ s⁻¹

B2: PADI4_3i (peptide)
chain: YDRHHYRHPKYCG
modifications: not fully specified; D-tyrosine at position 1; acetylated N-terminus joined by a thioether bond to the side chain of Cys12 (cyclic); C-terminal amide
[3]
  Kd: > 10000 nM

B3: PADI4_8 (peptide)
peptide: YTLWTVLVVICCG
modifications: not fully specified; D-tyrosine at position 1; cyclised via a thioether bond between the N-terminus (chloroacetylated) and the cysteine side chain (the cysteine marked C(S-), Cys11 from the letters); C-terminal amide
notes: cyclic peptide from RaPID selection 2 (0 mM CaCl2); source: synthetic peptide (Fmoc solid-phase synthesis, HPLC purified)
[4]
  Kd: > 2000 nM
[5]
  Kd: > 2000 nM
[6]
  Kd: > 2000 nM

B4: PADI4_12 (peptide)
peptide: YEPCRFREILDL
modifications: not fully specified; L-tyrosine at position 1; cyclised via a thioether bond between the N-terminus (chloroacetylated) and the cysteine side chain (Cys4, from the letters); C-terminal amide
[7]
  fold reduction of the calcium requirement K50(Ca2+) of PADI4 activity by 30 µM peptide (COLDER assay): 4 fold

B5: PADI4_9 (peptide)
peptide: YAQWYIWVLLCG
modifications: not fully specified; D-tyrosine at position 1; cyclised via a thioether bond between the N-terminus (chloroacetylated) and the cysteine side chain (Cys11, from the letters); C-terminal amide
notes: as for B3
[4]
  Kd: > 2000 nM
[5]
  Kd: > 2000 nM
[6]
  Kd: > 2000 nM

B6: PADI4_3 (peptide)
peptide: {CH2CO}-[dY]RDHHYRHPKYCG-NH2
modifications: thioether N-12
notes: cyclic peptide from RaPID selection 1 (10 mM CaCl2); source: synthetic peptide (Fmoc solid-phase synthesis, HPLC purified)
[8]
  EC50 of inhibition of H3 citrullination in hPADI4-stable mES cells stimulated with KSR/2i for 3 h (high-content imaging): 200 nM
[9]
  Kd: 83 nM
[10]
  Kd: 61 nM
[11]
  Kd: 3 nM
[12]
  Kd: 7 nM
[13]
  Kd: 20 nM
[14]
  Kd: 8 nM

B7: PADI4_11 (peptide)
peptide: YESCRYRQVLQL
modifications: not fully specified; acetylated N-terminus (L-tyrosine 1) joined by a thioether bond to the side chain of Cys4 (cyclic); C-terminal amide
notes: cyclic peptide from RaPID selection 3; also called PAD4_11; source: synthetic peptide (Fmoc solid-phase synthesis, HPLC-purified)
[1]
  koff: 0.1 s⁻¹
  kon: 200000 M⁻¹ s⁻¹
[2]
  koff: 0.1 s⁻¹
  kon: 300000 M⁻¹ s⁻¹

B8: PADI4_11 (peptide)
peptide: {CH2CO}-YESCRYRQVLQL-NH2
modifications: thioether N-4
notes: cyclic (lariat) peptide from RaPID selection 3 (10 mM CaCl2 + Cl-amidine); also called PAD4_11; source: synthetic peptide (Fmoc solid-phase synthesis, HPLC purified)
[15]
  ratio of K50(Ca2+) with DMSO to K50(Ca2+) with 30 µM PADI4_11 (COLDER assay): 1.5 fold
[16]
  ratio of K50(Ca2+) with DMSO to K50(Ca2+) with 30 µM PADI4_11 (COLDER assay): 0.9 fold
[17]
  ratio of K50(Ca2+) with DMSO to K50(Ca2+) with 30 µM PADI4_11 (COLDER assay): 2.7 fold
[18]
  ratio of K50(Ca2+) with DMSO to K50(Ca2+) with 30 µM PADI4_11 (COLDER assay): 2.9 fold
[19]
  ratio of K50(Ca2+) with DMSO to K50(Ca2+) with 30 µM PADI4_11 (COLDER assay): 1.1 fold
[9]
  Kd: > 10000 nM
[10]
  Kd: 3000 nM
[11]
  Kd: > 10000 nM
[12]
  Kd: 700 nM
[13]
  Kd: 4000 nM
[14]
  Kd: > 10000 nM

B9: PADI4_6 (peptide)
peptide: YLVLTIRLVLCG
modifications: not fully specified; D-tyrosine at position 1; cyclised via a thioether bond between the N-terminus (chloroacetylated) and the cysteine side chain (Cys11, from the letters); C-terminal amide
notes: as for B6
[4]
  Kd: > 2000 nM
[5]
  Kd: > 2000 nM
[6]
  Kd: > 2000 nM

B10: PADI4_1 (peptide)
peptide: YFYRIGFWYPNYQCG
modifications: not fully specified; D-tyrosine at position 1; cyclised via a thioether bond between the N-terminus (chloroacetylated) and the cysteine side chain (Cys14, from the letters); C-terminal amide
notes: cyclic peptide from RaPID selection 1 (10 mM CaCl2); also called PAD4_1; source: synthetic peptide (Fmoc solid-phase synthesis, HPLC purified)
[4]
  Kd: 727 nM
[5]
  Kd: 205 nM
[6]
  Kd: 105 nM

B11: PADI4_4 (peptide)
peptide: YHRLIVVIYVCG
modifications: not fully specified; D-tyrosine at position 1; cyclised via a thioether bond between the N-terminus (chloroacetylated) and the cysteine side chain (Cys11, from the letters); C-terminal amide
notes: as for B6
[4]
  Kd: > 2000 nM
[5]
  Kd: > 2000 nM
[6]
  Kd: > 2000 nM

B12: PADI4_10 (peptide)
peptide: YPWEISVWLLYCG
modifications: not fully specified; D-tyrosine at position 1; cyclised via a thioether bond between the N-terminus (chloroacetylated) and the cysteine side chain (Cys12, from the letters); C-terminal amide
notes: as for B3
[4]
  Kd: > 2000 nM
[5]
  Kd: > 2000 nM
[6]
  Kd: > 2000 nM

B13: PADI4_7 (peptide)
peptide: YYPKGSWGYKLFCG
modifications: not fully specified; D-tyrosine at position 1; cyclised via a thioether bond between the N-terminus (chloroacetylated) and the cysteine side chain (Cys13, from the letters); C-terminal amide
notes: cyclic peptide from RaPID selection 2 (0 mM CaCl2); also called PAD4_7; source: synthetic peptide (Fmoc solid-phase synthesis, HPLC purified)
[4]
  Kd: 36 nM
[5]
  Kd: 39 nM
[6]
  Kd: 8 nM

B14: PADI4_3_R2Cit (peptide)
chain: YRDHHYRHPKYCG
modifications: citrulline at position 2; else as PADI4_3: D-tyrosine at position 1; thioether cyclisation between the N-terminus and the cysteine side chain; C-terminal amide
[7]
  IC50 of inhibition of PADI4 activity (COLDER assay): 1100 nM
[20]
  Kd: 20 nM

B15: PADI4_2 (peptide)
peptide: YRDHRSPFDGYCG
modifications: not fully specified; D-tyrosine at position 1; cyclised via a thioether bond between the N-terminus (chloroacetylated) and the cysteine side chain (Cys12, from the letters); C-terminal amide
[7]
  IC50 of inhibition of PADI4 activity (COLDER assay, substrate BAEE, 10 mM CaCl2, 50 nM PADI4): 209 nM

B16: PADI4_5 (peptide)
peptide: YATPWLIVVLCG
modifications: not fully specified; D-tyrosine at position 1; cyclised via a thioether bond between the N-terminus (chloroacetylated) and the cysteine side chain (Cys11, from the letters); C-terminal amide
notes: as for B6
[4]
  Kd: > 2000 nM
[5]
  Kd: > 2000 nM
[6]
  Kd: > 2000 nM

— PMC11555231, “A cyclic peptide toolkit reveals mechanistic principles of peptidylarginine deiminase IV regulation” (Nature Communications, 2024)
